Reference: the supplement of paper PMC7125110
± gives the standard error. This sample holds only a part of the variants without activity.

B1: glmS ribozyme (parent)
chain: AUAAAAGCGCCAGAACUACAGAAAUGUAGUUGACGAGGAGGAGGUUUAUCGAAUUUUCGGCGGAUGCCUCCAAA

Legend:
Details in all cases: with glucosamine-6-phosphate
[1] = variants of: B1; assay: self-cleavage kobs at 40 uM GlcN6P; higher = faster cleavage; RNA array
Procedure, shortened: (§1)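 Sequenced MiSeq chips were the platform: E. coli RNA polymerase transcribed barcoded ribozyme variants on them in situ, and a hybridised Cy3 probe tracked these at 37 °C. After glucosamine-6-phosphate (40 μM to 10 mM) in HEPES/KCl/Mg(OAc)2 buffer was flowed in, tiles were imaged over ~14 h. Signals normalised to baseline and to non-cleaving reference variants were reduced to per-tile medians and fit to one- or two-exponential decays to obtain kobs. kcat and KM were derived through weighted Michaelis–Menten fits across concentrations.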

[2] = variants of: B1; assay: self-cleavage kobs at 640 uM GlcN6P; higher = faster cleavage; RNA array
Procedure, shortened: as §1

[3] = variants of: B1; assay: self-cleavage kobs at 160 uM GlcN6P; higher = faster cleavage; RNA array
Procedure, shortened: as §1

[4] = variants of: B1; assay: self-cleavage kobs at 10000 uM GlcN6P; higher = faster cleavage; RNA array
Procedure, shortened: as §1

[5] = variants of: B1; assay: self-cleavage kobs at 2500 uM GlcN6P; higher = faster cleavage; RNA array
Procedure, shortened: as §1

## C10A A14U
[1]
  self-cleavage kobs at 40 uM GlcN6P: < 1e-05 s⁻¹
[2]
  self-cleavage kobs at 640 uM GlcN6P: < 1e-05 s⁻¹

## G9C C11G G37A G38A U54C A64G
[1]
  self-cleavage kobs at 40 uM GlcN6P: < 1e-05 s⁻¹

## G9A C50G
[1]
  self-cleavage kobs at 40 uM GlcN6P: 0.000112 ± 1.8e-05 s⁻¹
[3]
  self-cleavage kobs at 160 uM GlcN6P: 0.000137 ± 3.9e-05 s⁻¹
[2]
  self-cleavage kobs at 640 uM GlcN6P: 0.00113 ± 0.00048 s⁻¹
[4]
  self-cleavage kobs at 10000 uM GlcN6P: 9.95e-05 ± 1.1e-05 s⁻¹

## C10U A36U U65G
[1]
  self-cleavage kobs at 40 uM GlcN6P: < 1e-05 s⁻¹

## G9U A36G
[1]
  self-cleavage kobs at 40 uM GlcN6P: < 1e-05 s⁻¹
[5]
  self-cleavage kobs at 2500 uM GlcN6P: < 1e-05 s⁻¹
[4]
  self-cleavage kobs at 10000 uM GlcN6P: < 1e-05 s⁻¹

## C10A C11U
[1]
  self-cleavage kobs at 40 uM GlcN6P: < 1e-05 s⁻¹
[3]
  self-cleavage kobs at 160 uM GlcN6P: < 1e-05 s⁻¹
[5]
  self-cleavage kobs at 2500 uM GlcN6P: < 1e-05 s⁻¹
[4]
  self-cleavage kobs at 10000 uM GlcN6P: < 1e-05 s⁻¹

## C10A C11A
[1]
  self-cleavage kobs at 40 uM GlcN6P: < 1e-05 s⁻¹
[2]
  self-cleavage kobs at 640 uM GlcN6P: < 1e-05 s⁻¹
[4]
  self-cleavage kobs at 10000 uM GlcN6P: < 1e-05 s⁻¹

## G9C G66U
[1]
  self-cleavage kobs at 40 uM GlcN6P: < 1e-05 s⁻¹
[3]
  self-cleavage kobs at 160 uM GlcN6P: < 1e-05 s⁻¹
[2]
  self-cleavage kobs at 640 uM GlcN6P: < 1e-05 s⁻¹
[5]
  self-cleavage kobs at 2500 uM GlcN6P: < 1e-05 s⁻¹
[4]
  self-cleavage kobs at 10000 uM GlcN6P: < 1e-05 s⁻¹

## G9U U45G
[1]
  self-cleavage kobs at 40 uM GlcN6P: < 1e-05 s⁻¹
[3]
  self-cleavage kobs at 160 uM GlcN6P: < 1e-05 s⁻¹
[2]
  self-cleavage kobs at 640 uM GlcN6P: < 1e-05 s⁻¹
[5]
  self-cleavage kobs at 2500 uM GlcN6P: < 1e-05 s⁻¹
[4]
  self-cleavage kobs at 10000 uM GlcN6P: < 1e-05 s⁻¹

## G9C C11U
[1]
  self-cleavage kobs at 40 uM GlcN6P: < 1e-05 s⁻¹
[3]
  self-cleavage kobs at 160 uM GlcN6P: < 1e-05 s⁻¹
[2]
  self-cleavage kobs at 640 uM GlcN6P: < 1e-05 s⁻¹
[5]
  self-cleavage kobs at 2500 uM GlcN6P: < 1e-05 s⁻¹
[4]
  self-cleavage kobs at 10000 uM GlcN6P: < 1e-05 s⁻¹

## C10G A15U A36U G38A A53G C68G C70U
[1]
  self-cleavage kobs at 40 uM GlcN6P: 0.000148 ± 4.5e-05 s⁻¹

## G9C G63A
[1]
  self-cleavage kobs at 40 uM GlcN6P: < 1e-05 s⁻¹
[2]
  self-cleavage kobs at 640 uM GlcN6P: < 1e-05 s⁻¹

## C10A U31G A42U C50G U56A G60U C68G C71A
[1]
  self-cleavage kobs at 40 uM GlcN6P: 4.77e-05 ± 2e-05 s⁻¹
[2]
  self-cleavage kobs at 640 uM GlcN6P: 0.00298 ± 0.00084 s⁻¹

## G9A C11G A52C C68U
[1]
  self-cleavage kobs at 40 uM GlcN6P: < 1e-05 s⁻¹
[4]
  self-cleavage kobs at 10000 uM GlcN6P: < 1e-05 s⁻¹

## C10G U31C G35U
[1]
  self-cleavage kobs at 40 uM GlcN6P: < 1e-05 s⁻¹
[4]
  self-cleavage kobs at 10000 uM GlcN6P: < 1e-05 s⁻¹

## C10A A53G G60C
[1]
  self-cleavage kobs at 40 uM GlcN6P: < 1e-05 s⁻¹

## C10U A48C
[1]
  self-cleavage kobs at 40 uM GlcN6P: < 1e-05 s⁻¹
[3]
  self-cleavage kobs at 160 uM GlcN6P: < 1e-05 s⁻¹
[2]
  self-cleavage kobs at 640 uM GlcN6P: < 1e-05 s⁻¹
[5]
  self-cleavage kobs at 2500 uM GlcN6P: < 1e-05 s⁻¹
[4]
  self-cleavage kobs at 10000 uM GlcN6P: < 1e-05 s⁻¹

## C10A A48G
[1]
  self-cleavage kobs at 40 uM GlcN6P: < 1e-05 s⁻¹
[3]
  self-cleavage kobs at 160 uM GlcN6P: < 1e-05 s⁻¹
[2]
  self-cleavage kobs at 640 uM GlcN6P: < 1e-05 s⁻¹
[4]
  self-cleavage kobs at 10000 uM GlcN6P: < 1e-05 s⁻¹

## G9C G59U
[1]
  self-cleavage kobs at 40 uM GlcN6P: < 1e-05 s⁻¹
[3]
  self-cleavage kobs at 160 uM GlcN6P: < 1e-05 s⁻¹
[2]
  self-cleavage kobs at 640 uM GlcN6P: < 1e-05 s⁻¹
[5]
  self-cleavage kobs at 2500 uM GlcN6P: < 1e-05 s⁻¹

## G9C G44A A52U
[1]
  self-cleavage kobs at 40 uM GlcN6P: < 1e-05 s⁻¹

## G9C A36G
[1]
  self-cleavage kobs at 40 uM GlcN6P: < 1e-05 s⁻¹
[2]
  self-cleavage kobs at 640 uM GlcN6P: < 1e-05 s⁻¹
[4]
  self-cleavage kobs at 10000 uM GlcN6P: < 1e-05 s⁻¹

## G9C A36U
[1]
  self-cleavage kobs at 40 uM GlcN6P: < 1e-05 s⁻¹
[2]
  self-cleavage kobs at 640 uM GlcN6P: < 1e-05 s⁻¹
[5]
  self-cleavage kobs at 2500 uM GlcN6P: < 1e-05 s⁻¹

## C10G G29A A48G
[1]
  self-cleavage kobs at 40 uM GlcN6P: < 1e-05 s⁻¹

## C10U A33C
[1]
  self-cleavage kobs at 40 uM GlcN6P: < 1e-05 s⁻¹
[3]
  self-cleavage kobs at 160 uM GlcN6P: < 1e-05 s⁻¹
[2]
  self-cleavage kobs at 640 uM GlcN6P: < 1e-05 s⁻¹
[5]
  self-cleavage kobs at 2500 uM GlcN6P: < 1e-05 s⁻¹

## C10G U57G
[1]
  self-cleavage kobs at 40 uM GlcN6P: < 1e-05 s⁻¹
[2]
  self-cleavage kobs at 640 uM GlcN6P: < 1e-05 s⁻¹
[5]
  self-cleavage kobs at 2500 uM GlcN6P: < 1e-05 s⁻¹
[4]
  self-cleavage kobs at 10000 uM GlcN6P: < 1e-05 s⁻¹

## G9C A33U
[1]
  self-cleavage kobs at 40 uM GlcN6P: < 1e-05 s⁻¹
[3]
  self-cleavage kobs at 160 uM GlcN6P: < 1e-05 s⁻¹
[2]
  self-cleavage kobs at 640 uM GlcN6P: < 1e-05 s⁻¹
[5]
  self-cleavage kobs at 2500 uM GlcN6P: < 1e-05 s⁻¹
[4]
  self-cleavage kobs at 10000 uM GlcN6P: < 1e-05 s⁻¹

## G9A G44C
[1]
  self-cleavage kobs at 40 uM GlcN6P: < 1e-05 s⁻¹
[2]
  self-cleavage kobs at 640 uM GlcN6P: < 1e-05 s⁻¹
[5]
  self-cleavage kobs at 2500 uM GlcN6P: < 1e-05 s⁻¹

## G9A U57G
[1]
  self-cleavage kobs at 40 uM GlcN6P: < 1e-05 s⁻¹
[3]
  self-cleavage kobs at 160 uM GlcN6P: < 1e-05 s⁻¹
[2]
  self-cleavage kobs at 640 uM GlcN6P: < 1e-05 s⁻¹
[5]
  self-cleavage kobs at 2500 uM GlcN6P: < 1e-05 s⁻¹

## C10U C11G C16A C50G
[1]
  self-cleavage kobs at 40 uM GlcN6P: 9.19e-05 ± 2.5e-05 s⁻¹
[2]
  self-cleavage kobs at 640 uM GlcN6P: 0.000376 ± 9.9e-05 s⁻¹
[5]
  self-cleavage kobs at 2500 uM GlcN6P: 0.000168 ± 3.4e-05 s⁻¹
[4]
  self-cleavage kobs at 10000 uM GlcN6P: 8e-05 ± 2.2e-05 s⁻¹

## C10A C34A G38U
[1]
  self-cleavage kobs at 40 uM GlcN6P: < 1e-05 s⁻¹

## C10U A52U U65A
[1]
  self-cleavage kobs at 40 uM GlcN6P: < 1e-05 s⁻¹
[2]
  self-cleavage kobs at 640 uM GlcN6P: < 1e-05 s⁻¹
[5]
  self-cleavage kobs at 2500 uM GlcN6P: < 1e-05 s⁻¹
[4]
  self-cleavage kobs at 10000 uM GlcN6P: < 1e-05 s⁻¹

## G9C C10G
[1]
  self-cleavage kobs at 40 uM GlcN6P: < 1e-05 s⁻¹
[3]
  self-cleavage kobs at 160 uM GlcN6P: < 1e-05 s⁻¹
[2]
  self-cleavage kobs at 640 uM GlcN6P: < 1e-05 s⁻¹
[5]
  self-cleavage kobs at 2500 uM GlcN6P: < 1e-05 s⁻¹
[4]
  self-cleavage kobs at 10000 uM GlcN6P: < 1e-05 s⁻¹

## C10G G51C
[1]
  self-cleavage kobs at 40 uM GlcN6P: < 1e-05 s⁻¹
[3]
  self-cleavage kobs at 160 uM GlcN6P: < 1e-05 s⁻¹
[2]
  self-cleavage kobs at 640 uM GlcN6P: < 1e-05 s⁻¹
[4]
  self-cleavage kobs at 10000 uM GlcN6P: < 1e-05 s⁻¹

## G9C U55G
[1]
  self-cleavage kobs at 40 uM GlcN6P: < 1e-05 s⁻¹
[4]
  self-cleavage kobs at 10000 uM GlcN6P: < 1e-05 s⁻¹

## G9C C70A
[1]
  self-cleavage kobs at 40 uM GlcN6P: < 1e-05 s⁻¹
[3]
  self-cleavage kobs at 160 uM GlcN6P: < 1e-05 s⁻¹
[2]
  self-cleavage kobs at 640 uM GlcN6P: < 1e-05 s⁻¹
[4]
  self-cleavage kobs at 10000 uM GlcN6P: < 1e-05 s⁻¹

## C10G G37U G40C G41U C50G
[1]
  self-cleavage kobs at 40 uM GlcN6P: < 1e-05 s⁻¹

## G9C G37A G60C U65A
[1]
  self-cleavage kobs at 40 uM GlcN6P: < 1e-05 s⁻¹
[5]
  self-cleavage kobs at 2500 uM GlcN6P: < 1e-05 s⁻¹

## C10A G43A U45C
[1]
  self-cleavage kobs at 40 uM GlcN6P: < 1e-05 s⁻¹

## G9C A42U
[1]
  self-cleavage kobs at 40 uM GlcN6P: < 1e-05 s⁻¹
[3]
  self-cleavage kobs at 160 uM GlcN6P: < 1e-05 s⁻¹
[5]
  self-cleavage kobs at 2500 uM GlcN6P: < 1e-05 s⁻¹

## C10G G63A
[1]
  self-cleavage kobs at 40 uM GlcN6P: < 1e-05 s⁻¹
[4]
  self-cleavage kobs at 10000 uM GlcN6P: < 1e-05 s⁻¹

## C10G C11A A42U
[1]
  self-cleavage kobs at 40 uM GlcN6P: < 1e-05 s⁻¹
[5]
  self-cleavage kobs at 2500 uM GlcN6P: < 1e-05 s⁻¹
[4]
  self-cleavage kobs at 10000 uM GlcN6P: < 1e-05 s⁻¹

## C10U A14G U55C A64G G66U
[1]
  self-cleavage kobs at 40 uM GlcN6P: < 1e-05 s⁻¹

## G9A A14C
[1]
  self-cleavage kobs at 40 uM GlcN6P: < 1e-05 s⁻¹
[3]
  self-cleavage kobs at 160 uM GlcN6P: < 1e-05 s⁻¹
[5]
  self-cleavage kobs at 2500 uM GlcN6P: < 1e-05 s⁻¹

## C10A C16U
[1]
  self-cleavage kobs at 40 uM GlcN6P: < 1e-05 s⁻¹
[3]
  self-cleavage kobs at 160 uM GlcN6P: < 1e-05 s⁻¹
[2]
  self-cleavage kobs at 640 uM GlcN6P: < 1e-05 s⁻¹
